Consider one variant from IntAct's records for PubMed 27615052.

B1: E3 ubiquitin-protein ligase LRSAM1 (Homo sapiens), Q6UWE0 (parent)
chain: MPLFFRKRKPSEEARKRLEYQMCLAKEAGADDILDISKCELSEIPFGAFATCKVLQKKVLIVHTNHLTSLLPKSCSLLSLATIKVLDLHDNQLTALPDDLGQLTALQVLNVERNQLMQLPRSIGNLTQLQTLNVKDNKLKELPDTVGELRSLRTLNISGNEIQRLPQMLAHVRTLEMLSLDASAMVYPPREVCGAGTAAILQFLCKESGLEYYPPSQYLLPILEQDGIENSRDSPDGPTDRFSREELEWQNRFSDYEKRKEQKMLEKLEFERRLELGQREHTQLLQQSSSQKDEILQTVKEEQSRLEQGLSEHQRHLNAERQRLQEQLKQTEQNISSRIQKLLQDNQRQKKSSEILKSLENERIRMEQLMSITQEETESLRRRDVASAMQQMLTESCKNRLIQMAYESQRQNLVQQACSSMAEMDERFQQILSWQQMDQNKAISQILQESAMQKAAFEALQVKKDLMHRQIRSQIKLIETELLQLTQLELKRKSLDTESLQEMISEQRWALSSLLQQLLKEKQQREEELREILTELEAKSETRQENYWLIQYQRLLNQKPLSLKLQEEGMERQLVALLEELSAEHYLPIFAHHRLSLDLLSQMSPGDLAKVGVSEAGLQHEILRRVQELLDAARIQPELKPPMGEVVTPTAPQEPPESVRPSAPPAELEVQASECVVCLEREAQMIFLNCGHVCCCQQCCQPLRTCPLCRQDIAQRLRIYHSS

The variants in one test derive from B1. The following applies: with G3BP1, Q13283.
G3BP1, Q13283, sequence (Q13283 whole entry, looked up): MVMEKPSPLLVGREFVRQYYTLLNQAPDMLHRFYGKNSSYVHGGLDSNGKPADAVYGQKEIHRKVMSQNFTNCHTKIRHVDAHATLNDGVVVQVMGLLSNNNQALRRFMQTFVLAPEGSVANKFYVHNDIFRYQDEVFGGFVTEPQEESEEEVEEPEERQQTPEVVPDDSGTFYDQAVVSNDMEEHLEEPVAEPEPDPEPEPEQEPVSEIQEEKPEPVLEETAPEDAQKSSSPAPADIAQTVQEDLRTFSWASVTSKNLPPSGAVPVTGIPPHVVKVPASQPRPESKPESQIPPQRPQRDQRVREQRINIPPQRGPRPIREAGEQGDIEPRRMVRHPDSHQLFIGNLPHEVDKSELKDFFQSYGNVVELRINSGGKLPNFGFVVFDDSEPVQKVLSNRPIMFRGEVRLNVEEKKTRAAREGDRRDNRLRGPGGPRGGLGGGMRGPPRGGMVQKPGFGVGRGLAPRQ
Turning to C694R, the “effect of a mutation on the interaction” value is listed as “disrupting interaction strength”.

In a further test the parent is B1. The following applies: with fus_mouse Fus.
For the variant C694R, the “effect of a mutation on the interaction” value is listed as “disrupting interaction strength”.
